B1: recombinant human protein kinase CK2 holoenzyme coupled to fluorescein isothiocyanate (FITC) (complex)
chain 1: MSGPVPSRARVYTDVNTHRPREYWDYESHVVEWGNQDDYQLVRKLGRGKYSEVFEAINITNNEKVVVKILKPVKKKKIKREIKILENLRGGPNIITLADIVKDPVSRTPALVFEHVNNTDFKQLYQTLTDYDIRFYMYEILKALDYCHSMGIMHRDVKPHNVMIDHEHRKLRLIDWGLAEFYHPGQEYNVRVASRYFKGPELLVDYQMYDYSLDMWSLGCMLASMIFRKEPFFHGHDNYDQLVRIAKVLGTEDLYDYIDKYNIELDPRFNDILGRHSRKRWERFVHSENQHLVSPEALDFLDKLLRYDHQSRLTAREAMEHPYFYTVVKDQARMGSSSMPGGSTPVSSANMMSGISSVPTPSPLGPLAGSPVIAAANPLGMPVPAAAGAQQ
chain 2: not shown
modifications: FITC covalently coupled to the holoenzyme, sites not stated | FITC covalently coupled to the holoenzyme, sites not stated
notes: catalytic subunit CK2α of human protein kinase CK2; regulatory subunit CK2β of human protein kinase CK2; FITC-labelled in the flow cytometry; also called CK2-FITC; fluorophore coupled CK2; source: E. coli BL21(DE3), purified (protocol of Grankowski et al. with modifications), FITC labeling Kit (Calbiochem); copies: 2 + 2

Columns and labels:
[1] = molecular target: T1, human αS1-casein (170 aa) displayed on E. coli UT5600(DE3) by autodisplay (plasmid pKP10) (human, UniProt P47710 16-185); assay: flow cytometry on cells; E. coli UT5600(DE3) cells displaying the passenger by autodisplay incubated with fluorescein-coupled CK2 holoenzyme for 30 min at 37 °C in 50 mM Tris/HCl pH 7.4, 100 mM NaCl, 10 mM MgCl2, 1 mM DTT, 200 µM ATP; washed; excitation 488 nm, 527/30 nm filter; host strain without plasmid as control; details: one partner purified
T1 construct: human αS1-casein as autodisplay passenger, 510 nt, 170 aa as printed; Passenger between the cleaved signal peptide of the autotransporter precursor and the linker; also called full-length αS1-casein; not shown: AIDA-I autotransporter linker and β-barrel, C-terminal, kept
T1 sequence (looked up): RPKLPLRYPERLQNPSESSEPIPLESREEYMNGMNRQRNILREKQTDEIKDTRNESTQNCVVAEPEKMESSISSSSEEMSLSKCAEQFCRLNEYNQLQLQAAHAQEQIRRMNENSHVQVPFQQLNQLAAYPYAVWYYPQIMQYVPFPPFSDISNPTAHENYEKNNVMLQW

[2] = molecular target: human CK2α, catalytic subunit alone (unlabelled) (human, UniProt P68400 1-391); assay: cell-based or functional assay
[3] = molecular target: B1; assay: cell-based or functional assay
[4] = molecular target: B1; assay: cell-based or functional assay; remark: listed apart in the source

B1
fold fluorescence intensity over control cells [1]: 10 fold

DCRGLIVMIKLH [peptide B2 (free synthetic peptide)]
IC50 of inhibition of the kinase activity of the catalytic subunit CK2α alone, CE assay [2]: 800 nM | Ki, taken as equal to the IC50 of the CE kinase assay (non-competitive inhibition with α = 1) [3]: 800 nM | IC50 of inhibition of the kinase activity of (unlabelled) CK2 holoenzyme, CE assay with substrate peptide … [4]: 800 nM

Reference: PMC5374410, “Identification of a Potent Allosteric Inhibitor of Human Protein Kinase CK2 by Bacterial Surface Display Library Screening” (Pharmaceuticals, 2017)
